# In patent US20110190386A1:
# What was measured:
# [1] = target: CFP from CFP-empty plasmid (pECFP); test: FRET by acceptor photobleaching; negative control, cotransfection of empty CFP and YFP plasmids in MDA-MB231 cells
# [2] = target: CFP-tagged CD44 (human full length CD44s cDNA fused in frame into pECFP, expressed in MDA-MB231 cells) (human) (UniProt P16070); test: FRET by acceptor photobleaching, confocal microscopy, MDA-MB231 cells coexpressing CFP-CD44 and YFP-OPN
# [3] = target: CFP-tagged CD44 (human full length CD44s cDNA fused in frame into pECFP, expressed in MDA-MB231 cells) (human) (UniProt P16070); test: FRET by acceptor photobleaching, CFP-CD44/YFP-OPN in MDA-MB231 cells, in the presence of mutated OPN-R3 RNA aptamer (control)
# [4] = target: CFP-tagged CD44 (human full length CD44s cDNA fused in frame into pECFP, expressed in MDA-MB231 cells) (human) (UniProt P16070); test: FRET by acceptor photobleaching, CFP-CD44/YFP-OPN in MDA-MB231 cells, in the presence of blocking antibody to αvβ3 integrin
FRET efficiency [1] [%],FRET efficiency [2] [%],FRET efficiency [3] [%],FRET efficiency [4] [%],Substance
0.23,,,,YFP from YFP-empty plasmid (pEYFP)
,24.2,23.1,19.6,"YFP-tagged OPN (human OPN cDNA fused in frame into pEYFP, expressed in MDA-MB231 cells) (from UniProt P10451 17-314) (ligand)"
